Broadly, the Kd is the constant that tells how readily two partners part at equilibrium.

The record followed here is article PMC7572793.

Assay [1] concerns the target rPfCSP_∆ABCD (Plasmodium falciparum) (UniProt Q7K740). The assay is described as follows: ITC. Background: Isothermal titration calorimetry measures the heat released or taken up as one component is titrated into another.
The target in assay [2] is recombinant full-length PfCSP (rPfCSP_FL) (Plasmodium falciparum) (UniProt Q7K740). The assay is described as follows: ITC.

In assay [1], L9 (antibody) returned a Kd of 0.073 µM and a stoichiometry N (antigen binding sites per rPfCSP) of 12.7. Further, in assay [2], the KD1 (binding event 1) was 22 nM, the KD2 (binding event 2) came to 47 nM, the N of binding event 1 (binding sites) amounted to 2 and the N of binding event 2 (binding sites) amounted to 9. Moreover, the stoichiometry N (antigen binding sites per rPfCSP) in assay [2] is 11.2.
